Patent US12077763B2, “RNA-based control of powdery mildew” (Greenlight Biosciences, Inc., priority 2021, dated 2024)

System: E. necator
Assay: Leaf disc assay, dry inoculum (settling tower), decrease in disease severity / hyphal growth (Example 2)
Conditions: decrease in disease severity (hyphal growth) relative to untreated control, value ± SE; for % decrease =/− SE TP1: time point 1 (untreated control hyphal growth ≥50%)

Molecule | % decrease =/− SE TP1 [%] | % decrease =/− SE TP2 (time point 2) [%]
GS3358 (nucleic acid) sense: UUGGUACUAUGGCCAGGGUCAAUUCAAUUCAAUUUUUUUCUAUCAAAUAAAAUUAAAUCAAAAUAGUUUUCAAUCCAAUCUAACCCAAUCUUAAUCUUAAAAUGUAACUUCAAACAUUGUGAUUCAAGUACUAAUCACACGAGAAACUAGCAACGUUUGAUCUCGCUUUUCGAUCUACUUUAGGUACUUGAUGAAAUUUUCAAAGAUAUUUUGUCAUAAAACCAGUCACUAAGCUUCUUUGCUAUAUAAUUGCACUACGCGACGUCAACAGAUGCUCUUUUCACACUCCUAGUUAUUAAAGCAAUUGAAACAUCUUCUAACUAUAUACAACUUGAAUAUAACUCCAGAUUUGAAUAUAUUCUCCACCAAAAUUUAAUUAGGUUUGCAAUAAAUU antisense: AAUUUAUUGCAAACCUAAUUAAAUUUUGGUGGAGAAUAUAUUCAAAUCUGGAGUUAUAUUCAAGUUGUAUAUAGUUAGAAGAUGUUUCAAUUGCUUUAAUAACUAGGAGUGUGAAAAGAGCAUCUGUUGACGUCGCGUAGUGCAAUUAUAUAGCAAAGAAGCUUAGUGACUGGUUUUAUGACAAAAUAUCUUUGAAAAUUUCAUCAAGUACCUAAAGUAGAUCGAAAAGCGAGAUCAAACGUUGCUAGUUUCUCGUGUGAUUAGUACUUGAAUCACAAUGUUUGAAGUUACAUUUUAAGAUUAAGAUUGGGUUAGAUUGGAUUGAAAACUAUUUUGAUUUAAUUUUAUUUGAUAGAAAAAAAUUGAAUUGAAUUGACCCUGGCCAUAGUACCAA | 6 ± 4 | 
GS3359 (nucleic acid) sense: UUGAGAACAUGACCGAGGCUACUCUAAUCUUAGAUAUGUUUCUCAACAACGAGGGAGCCUUUAACUAUCCUCACAUUUCCUUUCGCAAAAAUUUCCACCCUUUCAACUUCUCUAAAAACAAUUGAUUUGCUUAGACCAUAAGAAUAUUUCAAUAUGAUUAAAACUGAAGCUAAUGGUGAAGGAUUUGAUAUUUCUAUUCCAGAGGUAUCAGUAACUGAGGAACGAAAGCCAUUUGUGCAAAAGGAAGGAUAUCUCAAAUUAAAGCAAGCAGGAACUGCAAGAGCGAAUGAAGCCGCUUCAUACGAAGCUCCACGUGGCACUGUAAAAGGAGAUUACGCAUACCGUCAUCGACAUCAGACAGUACUCCAACAGCAUAUAGCCUUUUUUGAUCAUGAUAA antisense: UUAUCAUGAUCAAAAAAGGCUAUAUGCUGUUGGAGUACUGUCUGAUGUCGAUGACGGUAUGCGUAAUCUCCUUUUACAGUGCCACGUGGAGCUUCGUAUGAAGCGGCUUCAUUCGCUCUUGCAGUUCCUGCUUGCUUUAAUUUGAGAUAUCCUUCCUUUUGCACAAAUGGCUUUCGUUCCUCAGUUACUGAUACCUCUGGAAUAGAAAUAUCAAAUCCUUCACCAUUAGCUUCAGUUUUAAUCAUAUUGAAAUAUUCUUAUGGUCUAAGCAAAUCAAUUGUUUUUAGAGAAGUUGAAAGGGUGGAAAUUUUUGCGAAAGGAAAUGUGAGGAUAGUUAAAGGCUCCCUCGUUGUUGAGAAACAUAUCUAAGAUUAGAGUAGCCUCGGUCAUGUUCUCAA | 14 ± 4 | 
GS1799: dsRNA trigger SEQ ID NO 193; gene target Transposon Tf2-6 polyprotein (nucleic acid) DNA: GTAGCGAGGATGGACACTGGAGAACGGTTCGAAGTATACTTGACAAATTACGAAAAGCTGGGCTATATCTCGATATTGATAAATGTGAGTTTTTATGTAAAGAAGTCAAATATTTGGGGTTTATTGTGAAAGCTGGTAAAAGTGTGGCCGTTGATCAATCGAAGGTGAAGGCCATTCTGGAGTGGGAAGCGCCAACTACGGTTAGAGGGGTAAGATCATTTCTCGGATTCGCCAACTTCTATCGGTGCTTTATTAAGGGATTTTCCGACATTACATCACCCCTAGTTGCCCTGACGAAAAAAAAGGTGGAATGGCGATGGGGGCGTGACGAAAATGATGCGTTTGAAAGGCTCAAAGAAATATTCTCATCACAGCCTGTTTTAGCACAGTGGGATCCAGAGAAGGAAACAATTTTGGAAGCTGATAGTTCTGGCTTTGCAATTGGTGGTTGTCTCTCACAGGTGGATGAACACGGCCAAATAAGACCTGTGGCTTATTTCTCGAAGAAGTTAAATAGTGCCGAAGCTAATTACCCAATCCATGACAAAGAATTACACGCAATAGTCACGTGCTTAAAAGAATGGAAACCAGAGCTAAT | 16 ± 5 | 8 ± 6
